Measured values published in US20230075753A1 (UCB, published 2023).

T1: Active cyno KLK5 (cynomolgus monkey, UniProt Q9Y337 67-293 (human entry))
T1 chain: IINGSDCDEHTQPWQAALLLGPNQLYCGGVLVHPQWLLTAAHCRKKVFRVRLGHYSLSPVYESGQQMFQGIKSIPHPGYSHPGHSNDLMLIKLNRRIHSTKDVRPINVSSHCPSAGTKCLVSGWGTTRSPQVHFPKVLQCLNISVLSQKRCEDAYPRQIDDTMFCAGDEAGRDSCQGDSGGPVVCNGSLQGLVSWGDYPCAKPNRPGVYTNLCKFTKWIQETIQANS


Key:
[1] = biological target: T2, Active human KLK5 (human, UniProt Q9Y337 67-293); test: cell-based or functional assay
[2] = biological target: T1, Active cyno KLK5; test: cell-based or functional assay
[3] = biological target: T2, Active human KLK5; test: SPR, Biacore T200, 25 C; mIgG captured on anti-mouse Fc, human KLK5 as analyte (20-0.25 nM), 1:1 model
Experimental: The kinetics of murine IgG molecules binding to human KLK5 were assessed by surface plasmon resonance (Biacore T200, (GE Life Sciences™) at 25° C.
Kinetic parameters were determined using a 1:1 binding model using Biacore T200 Evaluation software.

[4] = biological target: T2, Active human KLK5; test: SPR; repeats Table 3 (footnote: as described in example 4 and Table 3)
[5] = biological target: T2, Active human KLK5; test: SPR, Biacore T200, 25 C; IgG from supernatant captured on anti-human Fc, human KLK5 as analyte (20-0.08 nM), 1:1 model
Experimental: (§1) A goat anti-human IgG Fc specific antibody (Jackson ImmunoResearch) was immobilized on a CM5 Sensor Chip via amine coupling chemistry to a level of approximately 6000RU. Each analysis cycle consisted of capture of the anti-KLK5 IgG from supernatants to the anti Fc surface, injection of KLK5 analyte (prepared in house) for 180 s at 30 μl/min followed by 600 s dissociation. At the end of each cycle the surface was regenerated at a flowrate of 10 μL/min using a 60 s injection of 50 mM HCl followed by a 30 s injection of 5 mM NaOH and a final 60 s injection of 50 mM HCl. Human KLK5 was titrated from 20 nM to 0.08 nM (5×3-fold serial dilutions) for the supernatant in HBS-EP+ running buffer (GE Healthcare®) supplemented to a final concentration of 300 mM NaCl. Buffer blank injections were included to subtract instrument noise and drift. Kinetic parameters were determined using a 1:1 binding model using Biacore T200 Evaluation software (version 3.0). Experiments were carried out at 25° C.

[6] = biological target: T2, Active human KLK5; test: SPR, Biacore T200, 25 C; IgG from supernatant captured on anti-human Fc, human KLK5 as analyte (20-0.08 nM), 1:1 model; second run of the chimera; second run of the chimera (start and end of the assay)
Experimental: as §1

[7] = biological target: T2, Active human KLK5; test: SPR, Biacore T200, 25 C; IgG from supernatant captured on anti-human Fc, human KLK5 as analyte (20-0.08 nM), 1:1 model; run at the start or end of the assay
Experimental: as §1

Row | Binder | Kd [5] [nM] | koff [5] [s⁻¹] | kon [5] [M⁻¹ s⁻¹] | also measured
1 | Rabbit antibody 10236 (rabbit IgG) (antibody, V domains shown) VL: AYDMTQTPASVEVAVGGTVTIKCQASQSISSWLAWYQQKPGQPPKLLIYLASTLASGVSSRFKGSGSGTQFTLTISGVECADAATYYCQQGYTNSNIINTFGGGTEVVVK VH: QSVEESGGRLVTPGTPLTLTCTVSGFPLSNYAMSWVRQAPGKGLEWIGDIYPSDIIDYASWAKGRFTISQTSTTVELKITGPTTEDTATYFCARDNNDYGLDIWGPGTLVTVSS |  |  |  | IC50 (M), inhibition of kallikrein protease activity (fluorogenic peptide substrate) [1]: 1.74e-10 M; IC50 (M), inhibition of kallikrein protease activity (fluorogenic peptide substrate) [2]: 2.76e-11 M
2 | Rabbit antibody 10273 mIgG (rabbit variable regions on mouse constant regions) (antibody, V domains shown) VH: QSVEESGGRLVTPGTPLTLTCTVSGFSLSSYGMSWVRQAPGKGLEWIGIISSSGSTYYASWAKGRFTISKTSTTVDLKIASPTTEDTATYFCARDHIYRYDDYGDYPTYYGMDPWGPGTLVTVSS VL: AVVLTQTPSPMSAAVGGTVTISCQSSQSVYNNNDLAWYQQKPGQPPKLLIYRASTLASGVPSRFSGSGSGTQFTLTISGVQCDDAATYYCLGGYDDDVDTYTFGGGTEVVVKR |  |  |  | Kd [3]: 0.16 nM; koff [3]: 0.000184 s⁻¹; kon [3]: 1.14e+06 M⁻¹ s⁻¹; IC50 (M), inhibition of kallikrein protease activity (fluorogenic peptide substrate) [1]: 3.48e-11 M; IC50 (M), inhibition of kallikrein protease activity (fluorogenic peptide substrate) [2]: 3.01e-10 M
3 | Rabbit antibody 10236 mIgG (rabbit variable regions on mouse constant regions) (antibody) light: AYDMTQTPASVEVAVGGTVTIKCQASQSISSWLAWYQQKPGQPPKLLIYLASTLASGVSSRFKGSGSGTQFTLTISGVECADAATYYCQQGYTNSNIINTFGGGTEVVVKRTDAAPTVSIFPPSSEQLTSGGASVVCFLNNFYPKDINVKWKIDGSERQNGVLNSWTDQDSKDCTYSMSSTLTLTKDEYERHNSYTCEATHKTSTSPIVKSFNRNEC heavy: QSVEESGGRLVTPGTPLTLTCTVSGFPLSNYAMSWVRQAPGKGLEWIGDIYPSDIIDYASWAKGRFTISQTSTTVELKITGPTTEDTATYFCARDNNDYGLDIWGPGTLVTVSSAKTTPPSVYPLAPGSAAQTNSMVTLGCLVKGYFPEPVTVTWNSGSLSSGVHTFPAVLQSDLYTLSSSVTVPSSTWPSETVTCNVAHPASSTKVDKKIVPRDCGCKPCICTVPEVSSVFIFPPKPKDVLTITLTPKVTCVVVDISKDDPEVQFSWFVDDVEVHTAQTQPREEQFNSTFRSVSELPIMHQDWLNGKEFKCRVNSAAFPAPIEKTISKTKGRPKAPQVYTIPPPKEQMAKDKVSLTCMITDFFPEDITVEWQWNGQPAENYKNTQPIMDTDGSYFVYSKLNVQKSNWEAGNTFTCSVLHEGLHNHHTEKSLSHSPGK |  |  |  | Kd [3]: 0.172 nM; koff [3]: 0.000517 s⁻¹; kon [3]: 3e+06 M⁻¹ s⁻¹; IC50 (M), inhibition of kallikrein protease activity (fluorogenic peptide substrate) [1]: 2.4e-10 M; IC50 (M), inhibition of kallikrein protease activity (fluorogenic peptide substrate) [2]: 3.3e-11 M; Kd [4]: 0.172 nM; koff [4]: 0.000517 s⁻¹; kon [4]: 3e+06 M⁻¹ s⁻¹
4 | Humanized antibody 10236 gL6 gH9 (antibody, V domains shown, Tested as IgG from supernatant captured by anti-human Fc) VH: EVQLQESGPGLVKPSGTLSLTCAVSGFPLSNYAMSWVRQPPGKGLEWIGDIYPSDIIDYASWAKGRVTISQDSSKTQVSLKLSSVTAADTAVYYCARDNNDYGLDIWGQGTLVTVSS VL: AYDMTQSPSSLSASVGDRVTITCQASQSISSWLAWYQQKPGKAPKLLIYLASTLASGVPSRFSGSGSGTDFTLTISSLQPEDFATYYCQQGYTNSNIINTFGGGTKVEIKR | 0.475 | 0.00091 | 1.91e+06 | 
5 | Humanized antibody 10236 gL5 gH9 (antibody, V domains shown, Tested as IgG from supernatant captured by anti-human Fc) VH: EVQLQESGPGLVKPSGTLSLTCAVSGFPLSNYAMSWVRQPPGKGLEWIGDIYPSDIIDYASWAKGRVTISQDSSKTQVSLKLSSVTAADTAVYYCARDNNDYGLDIWGQGTLVTVSS VL: AYDMTQSPSSLSASVGDRVTITCQASQSISSWLAWYQQKPGKAPKLLIYLASTLASGVPSRFKGSGSGTDFTLTISSLQPEDFATYYCQQGYTNSNIINTFGGGTKVEIKR | 0.484 | 0.000929 | 1.92e+06 | 
6 | Humanized antibody 10236 gL5 gH10 (antibody, V domains shown, Tested as IgG from supernatant captured by anti-human Fc) VH: EVQLQESGPGLVKPSGTLSLTCAVSGFPLSNYAMSWVRQPPGKGLEWIGDIYPSDIIDYASWAKGRVTISVDSSKTQVSLKLSSVTAADTAVYYCARDNNDYGLDIWGQGTLVTVSS VL: AYDMTQSPSSLSASVGDRVTITCQASQSISSWLAWYQQKPGKAPKLLIYLASTLASGVPSRFKGSGSGTDFTLTISSLQPEDFATYYCQQGYTNSNIINTFGGGTKVEIKR | 0.546 | 0.00107 | 1.97e+06 | 
7 | Humanized antibody 10236 gL5 gH11 (antibody, V domains shown, Tested as IgG from supernatant captured by anti-human Fc) VH: EVQLQESGPGLVKPSGTLSLTCAVSGFPLSNYAMSWVRQPPGKGLEWIGDIYPSDIIDYASWAKGRVTISQDKSKTQVSLKLSSVTAADTAVYYCARDNNDYGLDIWGQGTLVTVSS VL: AYDMTQSPSSLSASVGDRVTITCQASQSISSWLAWYQQKPGKAPKLLIYLASTLASGVPSRFKGSGSGTDFTLTISSLQPEDFATYYCQQGYTNSNIINTFGGGTKVEIKR | 0.481 | 0.000811 | 1.69e+06 | 
8 | Humanized antibody 10236 gL5 gH12 (antibody, V domains shown, Tested as IgG from supernatant captured by anti-human Fc) VH: EVQLQESGPGLVKPSGTLSLTCAVSGFPLSNYAMSWVRQPPGKGLEWIGDIYPSDIIDYASWAKGRVTISQDSSKNQVSLKLSSVTAADTAVYYCARDNNDYGLDIWGQGTLVTVSS VL: AYDMTQSPSSLSASVGDRVTITCQASQSISSWLAWYQQKPGKAPKLLIYLASTLASGVPSRFKGSGSGTDFTLTISSLQPEDFATYYCQQGYTNSNIINTFGGGTKVEIKR | 0.331 | 0.000669 | 2.03e+06 | 
9 | Humanized antibody 10236 gL6 Q24K gH12 (antibody, V domains shown) VH: EVQLQESGPGLVKPSGTLSLTCAVSGFPLSNYAMSWVRQPPGKGLEWIGDIYPSDIIDYASWAKGRVTISQDSSKNQVSLKLSSVTAADTAVYYCARDNNDYGLDIWGQGTLVTVSS VL: AYDMTQSPSSLSASVGDRVTITCKASQSISSWLAWYQQKPGKAPKLLIYLASTLASGVPSRFSGSGSGTDFTLTISSLQPEDFATYYCQQGYTNSNIINTFGGGTKVEIKR | 0.337 | 0.000687 | 2.04e+06 | 
10 | Humanized antibody 10236 gL6 Q24R gH12 (antibody, V domains shown) VH: EVQLQESGPGLVKPSGTLSLTCAVSGFPLSNYAMSWVRQPPGKGLEWIGDIYPSDIIDYASWAKGRVTISQDSSKNQVSLKLSSVTAADTAVYYCARDNNDYGLDIWGQGTLVTVSS VL: AYDMTQSPSSLSASVGDRVTITCRASQSISSWLAWYQQKPGKAPKLLIYLASTLASGVPSRFSGSGSGTDFTLTISSLQPEDFATYYCQQGYTNSNIINTFGGGTKVEIKR | 0.333 | 0.000669 | 2.01e+06 | 
11 | Humanized antibody 10236 gL6 gH10 (antibody, V domains shown, Tested as IgG from supernatant captured by anti-human Fc) VH: EVQLQESGPGLVKPSGTLSLTCAVSGFPLSNYAMSWVRQPPGKGLEWIGDIYPSDIIDYASWAKGRVTISVDSSKTQVSLKLSSVTAADTAVYYCARDNNDYGLDIWGQGTLVTVSS VL: AYDMTQSPSSLSASVGDRVTITCQASQSISSWLAWYQQKPGKAPKLLIYLASTLASGVPSRFSGSGSGTDFTLTISSLQPEDFATYYCQQGYTNSNIINTFGGGTKVEIKR | 0.541 | 0.00105 | 1.93e+06 | 
12 | Humanized antibody 10236 gL6 gH11 (antibody, V domains shown, Tested as IgG from supernatant captured by anti-human Fc) VH: EVQLQESGPGLVKPSGTLSLTCAVSGFPLSNYAMSWVRQPPGKGLEWIGDIYPSDIIDYASWAKGRVTISQDKSKTQVSLKLSSVTAADTAVYYCARDNNDYGLDIWGQGTLVTVSS VL: AYDMTQSPSSLSASVGDRVTITCQASQSISSWLAWYQQKPGKAPKLLIYLASTLASGVPSRFSGSGSGTDFTLTISSLQPEDFATYYCQQGYTNSNIINTFGGGTKVEIKR | 0.475 | 0.000802 | 1.69e+06 | 
13 | Rabbit/human antibody 10236 (chimera) (antibody, human IgG4 S228P, kappa, also called rabbit/human chimera antibody) light: AYDMTQTPASVEVAVGGTVTIKCQASQSISSWLAWYQQKPGQPPKLLIYLASTLASGVSSRFKGSGSGTQFTLTISGVECADAATYYCQQGYTNSNIINTFGGGTEVVVKRTVAAPSVFIFPPSDEQLKSGTASVVCLLNNFYPREAKVQWKVDNALQSGNSQESVTEQDSKDCTYSLSSTLTLSKADYEKHKVYACEVTHQGLSSPVTKSFNRGEC heavy: not shown |  |  |  | Kd [6]: 0.152 nM; koff [6]: 0.000409 s⁻¹; kon [6]: 2.7e+06 M⁻¹ s⁻¹; Kd [7]: 0.168 nM; koff [7]: 0.000451 s⁻¹; kon [7]: 2.69e+06 M⁻¹ s⁻¹
